Results: the Human Domainome abundance scans (Beltran et al. 2025)
± gives the uncertainty stated by the source.

B1: Chromodomain-helicase-DNA-binding protein 4, residues 623 to 675; numbered along this chain, Q14839 (parent)
chain: MIHRILNHSVDKKGHVHYLIKWRDLPYDQASWESEDVEIQDYDLFKQSYWNHR

Variants of: B1
Assay: abundance fitness (aPCA) (normalised: wild type 0, dead -1); higher = more abundant; growth selection in yeast, the domain comes from the species named
Conditions: Homo sapiens

Q: Which abundance fitness does the source give for L44K here?
A: 0.111 ± 0.2

Q: Which abundance fitness does the source give for L44W here?
A: -0.302 ± 0.18

Q: Which abundance fitness does the source give for L44Q here?
A: -0.11 ± 0.12

Q: Which abundance fitness does the source give for L44N here?
A: -0.131 ± 0.092

Q: Which abundance fitness does the source give for L44S here?
A: -0.015 ± 0.069

Q: With L44P as the variant, how does the abundance fitness read?
A: -0.91 ± 0.098

Q: Which abundance fitness does the source give for L44A here?
A: -0.014 ± 0.069

Q: For L44G, which abundance fitness is on record?
A: -0.342 ± 0.073

Q: With L44R as the variant, how does the abundance fitness read?
A: 0.058 ± 0.072

Q: With R53V as the variant, how does the abundance fitness read?
A: -0.09 ± 0.14

Q: Which abundance fitness does the source give for R53K here?
A: -0.22 ± 0.22

Q: With R53P as the variant, how does the abundance fitness read?
A: -0.481 ± 0.28

Q: Which abundance fitness does the source give for R53E here?
A: -0.189 ± 0.25

Q: For R53Q, which abundance fitness is on record?
A: 0.025 ± 0.27

Q: For R53Y, which abundance fitness is on record?
A: 0.011 ± 0.2

Q: With R53N as the variant, how does the abundance fitness read?
A: -0.313 ± 0.48

Q: With R53S as the variant, how does the abundance fitness read?
A: -0.141 ± 0.19

Q: Which abundance fitness does the source give for R53W here?
A: -0.044 ± 0.16

Q: For R53T, which abundance fitness is on record?
A: -0.221 ± 0.18

Q: With R53L as the variant, how does the abundance fitness read?
A: -0.104 ± 0.21

Q: For R53H, which abundance fitness is on record?
A: -0.185 ± 0.3

Q: Which abundance fitness does the source give for R53C here?
A: -0.086 ± 0.21

Q: Which abundance fitness does the source give for R53D here?
A: -0.161 ± 0.26

Q: Which abundance fitness does the source give for H52K here?
A: 0.088 ± 0.18

Q: With H52P as the variant, how does the abundance fitness read?
A: -0.363 ± 0.15

Q: Which abundance fitness does the source give for H52D here?
A: -0.177 ± 0.15

Q: With H52E as the variant, how does the abundance fitness read?
A: 0.139 ± 0.16

Q: With H52M as the variant, how does the abundance fitness read?
A: -0.18 ± 0.13

Q: For H52T, which abundance fitness is on record?
A: 0.185 ± 0.14

Q: With H52L as the variant, how does the abundance fitness read?
A: -0.017 ± 0.13

Q: For H52I, which abundance fitness is on record?
A: -0.29 ± 0.15

Q: With H52C as the variant, how does the abundance fitness read?
A: -0.103 ± 0.13

Q: Which abundance fitness does the source give for H52G here?
A: 0.022 ± 0.082

Q: For H52Y, which abundance fitness is on record?
A: -0.254 ± 0.12

Q: Which abundance fitness does the source give for H52N here?
A: 0.023 ± 0.18

Q: Which abundance fitness does the source give for H52V here?
A: -0.016 ± 0.11

Q: With H52S as the variant, how does the abundance fitness read?
A: 0.106 ± 0.1

Q: Which abundance fitness does the source give for H52R here?
A: 0.058 ± 0.08

Q: With F45P as the variant, how does the abundance fitness read?
A: -0.857 ± 0.11

Q: Which abundance fitness does the source give for F45T here?
A: -0.64 ± 0.12

Q: For F45A, which abundance fitness is on record?
A: -0.013 ± 0.085

Q: Which abundance fitness does the source give for F45G here?
A: -0.856 ± 0.12

Q: For F45R, which abundance fitness is on record?
A: -0.757 ± 0.099

Q: With F45D as the variant, how does the abundance fitness read?
A: -0.568 ± 0.12

Q: With F45H as the variant, how does the abundance fitness read?
A: 0.119 ± 0.09

Q: With F45W as the variant, how does the abundance fitness read?
A: -0.279 ± 0.13

Q: With F45M as the variant, how does the abundance fitness read?
A: -0.283 ± 0.13

Q: Which abundance fitness does the source give for F45S here?
A: -0.444 ± 0.077

Q: Which abundance fitness does the source give for F45V here?
A: -0.616 ± 0.1

Q: Which abundance fitness does the source give for F45C here?
A: -0.306 ± 0.11

Q: For F45K, which abundance fitness is on record?
A: -0.391 ± 0.15

Q: Which abundance fitness does the source give for F45L here?
A: -0.388 ± 0.08

Q: Which abundance fitness does the source give for F45N here?
A: -0.627 ± 0.12

Q: With F45I as the variant, how does the abundance fitness read?
A: -0.423 ± 0.085

Q: For F45Q, which abundance fitness is on record?
A: -0.71 ± 0.16
